According to US20140018302A1 (published 2014):

Biological target: recombinant HDM2 17-125 (UniProt Q00987 17-125)
Assay: FP competition with FITC-SAH-p53-8; FIG. 2B; axis prints HDMX, legend says HDM2

B1: SAH-p53-8 (peptide)
peptide: QSQQTFXNLWRLLXQN
modifications: not fully specified; amino acids at positions S20 and P27 (p53 numbering) replaced with synthetic olefinic residues joined by an i, i+7 hydrocarbon staple; acetyl-capped N-terminus in the competition FP assay
  IC50: 216 nM
